Laboratory results as given in paper PMC7036032 (Molecular cell, 2019).

B1: human CPSF30-Fip1(1-243) complex (complex)
chain 1: MQEIIASVDHIKFDLEIAVEQQLGAQPLPFPGMDKSGAAVCEFFLKAACGKGGMCPFRHISGEKTVVCKHWLRGLCKKGDQCEFLHEYDMTKMPECYFYSKFGECSNKECPFLHIDPESKIKDCPWYDRGFCKHGPLCRHRHTRRVICVNYLVGFCPEGPSCKFMHPRFELPMGTTEQPPLPQQTQPPAKQRTPQVIGVMQSQNSSAGNRGPRPLEQVTCYKCGEKGHYANRCTKGHLAFLSGQ
chain 2: MSAGEVERLVSELSGGTGGDEEEEWLYGGPWDVHVHSDLAKDLDENEVERPEEENASANPPSGIEDETAENGVPKPKVTETEDDSDSDSDDDEDDVHVTIGDIKTGAPQYGSYGTAPVNLNIKTGGRVYGTTGTKVKGVDLDAPGSINGVPLLEVDLDSFEDKPWRKPGADLSDYFNYGFNEDTWKAYCEKQKRIRMGLEVIPVTSTTNKITAEDCTMEVTPGAEIQDGRFNLFKVQQGRTGN
B2: CPSF30 (isoform 2) (natural protein, human, UniProt O95639-2 1-244, looked up)
chain: MQEIIASVDHIKFDLEIAVEQQLGAQPLPFPGMDKSGAAVCEFFLKAACGKGGMCPFRHISGEKTVVCKHWLRGLCKKGDQCEFLHEYDMTKMPECYFYSKFGECSNKECPFLHIDPESKIKDCPWYDRGFCKHGPLCRHRHTRRVICVNYLVGFCPEGPSCKFMHPRFELPMGTTEQPPLPQQTQPPAKQRTPQVIGVMQSQNSSAGNRGPRPLEQVTCYKCGEKGHYANRCTKGHLAFLSGQ
B3: MBP-CPSF100 (full length) (natural protein, human, UniProt Q9P2I0 1-782, looked up)
chain: MTSIIKLTTLSGVQEESALCYLLQVDEFRFLLDCGWDEHFSMDIIDSLRKHVHQIDAVLLSHPDPLHLGALPYAVGKLGLNCAIYATIPVYKMGQMFMYDLYQSRHNTEDFTLFTLDDVDAAFDKIQQLKFSQIVNLKGKGHGLSITPLPAGHMIGGTIWKIVKDGEEEIVYAVDFNHKREIHLNGCSLEMLSRPSLLITDSFNATYVQPRRKQRDEQLLTNVLETLRGDGNVLIAVDTAGRVLELAQLLDQIWRTKDAGLGVYSLALLNNVSYNVVEFSKSQVEWMSDKLMRCFEDKRNNPFQFRHLSLCHGLSDLARVPSPKVVLASQPDLECGFSRDLFIQWCQDPKNSIILTYRTTPGTLARFLIDNPSEKITEIELRKRVKLEGKELEEYLEKEKLKKEAAKKLEQSKEADIDSSDESDIEEDIDQPSAHKTKHDLMMKGEGSRKGSFFKQAKKSYPMFPAPEERIKWDEYGEIIKPEDFLVPELQATEEEKSKLESGLTNGDEPMDQDLSDVPTKCISTTESIEIKARVTYIDYEGRSDGDSIKKIINQMKPRQLIIVHGPPEASQDLAECCRAFGGKDIKVYMPKLHETVDATSETHIYQVRLKDSLVSSLQFCKAKDAELAWIDGVLDMRVSKVDTGVILEEGELKDDGEDSEMQVEAPSDSSVIAQQKAMKSLFGDDEKETGEESEIIPTLEPLPPHEVPGHQSVFMNEPRLSDFKQVLLREGIQAEFVGGVLVCNNQVAVRRTETGRIGLEGCLCQDFYRIRDLLYEQYAIV

Tests used:
[1] = target: T1, human CPSF160-WDR33 (1-572) complex (human, UniProt Q10570 1-1443; Q9C0J8 1-572); assay: SEC
[2] = target: T1, human CPSF160-WDR33 (1-572) complex; assay: cryo-EM structure
[3] = target: T1, human CPSF160-WDR33 (1-572) complex; assay: pull-down

T1 sequence (Q10570 whole entry, chain 1 of 2): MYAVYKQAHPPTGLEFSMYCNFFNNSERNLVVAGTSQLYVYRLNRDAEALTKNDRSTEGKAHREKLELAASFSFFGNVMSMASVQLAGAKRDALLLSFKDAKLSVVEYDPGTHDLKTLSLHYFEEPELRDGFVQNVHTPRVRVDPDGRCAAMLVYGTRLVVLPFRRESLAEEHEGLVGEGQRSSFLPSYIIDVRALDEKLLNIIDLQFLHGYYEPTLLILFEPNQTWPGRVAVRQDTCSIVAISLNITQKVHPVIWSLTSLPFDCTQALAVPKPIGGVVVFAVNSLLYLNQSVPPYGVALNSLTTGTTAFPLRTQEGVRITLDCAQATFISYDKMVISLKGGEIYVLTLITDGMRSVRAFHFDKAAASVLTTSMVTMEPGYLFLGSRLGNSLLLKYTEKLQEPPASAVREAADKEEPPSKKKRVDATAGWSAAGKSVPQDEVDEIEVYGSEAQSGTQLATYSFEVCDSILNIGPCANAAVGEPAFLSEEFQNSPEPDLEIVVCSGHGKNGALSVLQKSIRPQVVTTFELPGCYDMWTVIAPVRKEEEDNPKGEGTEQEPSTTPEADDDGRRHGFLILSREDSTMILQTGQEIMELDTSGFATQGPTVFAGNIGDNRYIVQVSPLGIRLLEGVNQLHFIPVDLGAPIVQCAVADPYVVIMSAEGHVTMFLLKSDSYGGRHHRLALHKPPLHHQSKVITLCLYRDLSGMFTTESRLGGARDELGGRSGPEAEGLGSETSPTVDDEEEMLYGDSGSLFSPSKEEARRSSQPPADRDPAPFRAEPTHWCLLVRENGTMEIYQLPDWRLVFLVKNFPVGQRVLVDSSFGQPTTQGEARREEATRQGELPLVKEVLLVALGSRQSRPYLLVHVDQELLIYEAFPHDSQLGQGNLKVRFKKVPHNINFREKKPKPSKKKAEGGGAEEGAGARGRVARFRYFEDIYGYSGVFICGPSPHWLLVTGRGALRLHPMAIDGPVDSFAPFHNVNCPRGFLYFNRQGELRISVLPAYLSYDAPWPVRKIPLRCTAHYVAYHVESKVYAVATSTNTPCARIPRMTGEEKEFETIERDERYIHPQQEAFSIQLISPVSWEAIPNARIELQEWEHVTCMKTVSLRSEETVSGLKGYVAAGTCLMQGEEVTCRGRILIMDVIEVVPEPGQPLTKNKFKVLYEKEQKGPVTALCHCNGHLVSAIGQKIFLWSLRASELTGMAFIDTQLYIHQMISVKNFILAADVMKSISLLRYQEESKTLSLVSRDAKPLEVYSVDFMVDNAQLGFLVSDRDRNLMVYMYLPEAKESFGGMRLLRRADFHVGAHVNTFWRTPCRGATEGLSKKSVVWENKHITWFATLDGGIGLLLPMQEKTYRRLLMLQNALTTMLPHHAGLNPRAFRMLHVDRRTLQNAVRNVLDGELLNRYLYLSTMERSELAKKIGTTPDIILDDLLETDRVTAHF
T1 sequence (Q9C0J8 1-572, chain 2 of 2): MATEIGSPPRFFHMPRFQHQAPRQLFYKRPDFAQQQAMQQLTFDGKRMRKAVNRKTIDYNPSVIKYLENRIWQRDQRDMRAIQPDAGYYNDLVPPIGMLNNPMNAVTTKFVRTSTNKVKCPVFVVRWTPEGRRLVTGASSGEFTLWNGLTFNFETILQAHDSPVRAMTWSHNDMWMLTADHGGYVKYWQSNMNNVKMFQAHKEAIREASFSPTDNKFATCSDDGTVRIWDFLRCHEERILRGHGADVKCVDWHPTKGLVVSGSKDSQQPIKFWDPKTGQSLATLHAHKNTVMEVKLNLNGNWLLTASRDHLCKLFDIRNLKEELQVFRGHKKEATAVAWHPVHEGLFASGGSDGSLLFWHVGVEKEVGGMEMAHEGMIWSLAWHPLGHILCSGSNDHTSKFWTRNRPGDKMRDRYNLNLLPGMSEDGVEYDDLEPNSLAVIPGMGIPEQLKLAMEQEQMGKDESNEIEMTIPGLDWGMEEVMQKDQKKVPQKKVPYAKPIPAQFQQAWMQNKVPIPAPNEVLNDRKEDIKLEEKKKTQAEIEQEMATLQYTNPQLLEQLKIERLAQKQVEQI

Row | Binder | binding result [3] | other results
1 | B1 |  | binding result [1]: binds
2 | B2 |  | binding result [2]: binds
3 | B3 | binds | 
4 | SYPMFPAPEERIKWDEYGEIIKPEDFL (domain or fragment, human, UniProt Q9P2I0 460-486, looked up) [MBP-CPSF100 (460-486)] | binds | 
